Drawing on patent US20200190189A1 (Adimab, published 2020), this text covers Kd for five molecules.

Assay [1] has as its target T1, Human CD3εδ heterodimeric Fc fusion (Hu CD3εδ Fc) (human).
T1 chain 1: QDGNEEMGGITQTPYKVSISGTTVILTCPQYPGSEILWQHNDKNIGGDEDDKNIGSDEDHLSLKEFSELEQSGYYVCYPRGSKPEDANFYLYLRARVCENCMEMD
T1 chain 2: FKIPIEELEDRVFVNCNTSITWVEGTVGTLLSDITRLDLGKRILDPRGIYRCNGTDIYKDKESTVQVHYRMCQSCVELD
Put plainly: IgG, avid; method not named at the table (ForteBio BLI in Methods). For orientation: In BLI a coated tip is dipped into the sample, and binding shifts an interference pattern.

Assay [2] deals with T2, Cynomolgus CD3εδ heterodimeric Fc fusion (Cy CD3εδ Fc) (cynomolgus).
T2 chain 1: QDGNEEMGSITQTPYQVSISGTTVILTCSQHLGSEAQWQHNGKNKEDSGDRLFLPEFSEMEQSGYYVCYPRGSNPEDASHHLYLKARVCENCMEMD
T2 chain 2: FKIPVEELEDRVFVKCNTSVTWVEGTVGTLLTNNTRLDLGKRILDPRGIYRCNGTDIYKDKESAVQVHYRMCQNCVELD
Described as above.

B1: ADI-22523 IgG1 (antibody, V domains shown)
VH: QVQLVQSGAEVKKPGASVKVSCKASGFNIKDYYMHWVRQAPGQRLEWMGWIDLENGNTIYDPKFQGRVTITRDTSASTAYMELSSLRSEDTAVYYCARDGYGRYFYDVWGQGTLVTVSS
VL: DIVMTQSPDSLAVSLGERATINCKSSQSLLNSRTGKNYLAWYQQKPGQPPKLLIYWASTRESGVPDRFSGSGSGTDFTLTISSLQAEDVAVYYCKQSYSRRTFGGGTKVEIK
As a reminder, the Kd is the equilibrium constant for the complex coming apart. On to B1, for which the Kd stood at 200 pM in assay [1] and 220 pM in assay [2].

B2: ADI-26908 IgG1 (antibody, V domains shown)
VH: QVQLVQSGAEVKKPGASVKVSCKASGFNIKDYYMHWVRQAPGQRLEWMGWIDLEEGNTIYDAKFQGRVTITRDTSASTAYMELSSLRSEDTAVYYCARDAYGRYFYDVWGQGTLVTVSS
VL: DIVMTQSPDSLAVSLGERATINCKSSQSLLNARTGKNYLAWYQQKPGQPPKLLIYWASTRESGVPDRFSGSGSGTDFTLTISSLQAEDVAVYYCKQSYSRRTFGGGTKVEIK
For the molecule B2, the Kd was 1500 pM in assay [1] and 310 pM in assay [2].

B3: ADI-26915 IgG1 (antibody, V domains shown)
VH: QVQLVQSGAEVKKPGASVKVSCKASGFNIKDYYMHWVRQAPGQRLEWMGWIDLEEGNTIYDAKFQGRVTITRDTSASTAYMELSSLRSEDTAVYYCARDVLGRYFYDVWGQGTLVTVSS
VL: DIVMTQSPDSLAVSLGERATINCKSSQSLLNARTGKNYLAWYQQKPGQPPKLLIYWASTRESGVPDRFSGSGSGTDFTLTISSLQAEDVAVYYCKQSYSRRTFGGGTKVEIK
In the case of B3, the Kd in assay [1] stood at 3300 pM; in assay [2], 2600 pM.

B4: ADI-26906 IgG1 (antibody, V domains shown)
VH: QVQLVQSGAEVKKPGASVKVSCKASGFNIKDYYMHWVRQAPGQRLEWMGWIDLENANTIYDAKFQGRVTITRDTSASTAYMELSSLRSEDTAVYYCARDAYGRYFYDVWGQGTLVTVSS
VL: DIVMTQSPDSLAVSLGERATINCKSSQSLLNARTGKNYLAWYQQKPGQPPKLLIYWASTRESGVPDRFSGSGSGTDFTLTISSLQAEDVAVYYCKQSYSRRTFGGGTKVEIK
For B4, the Kd in assay [1] came to 1600 pM; in assay [2], 250 pM.

B5: ADI-26913 IgG1 (antibody, V domains shown)
VH: QVQLVQSGAEVKKPGASVKVSCKASGFNIKDYYMHWVRQAPGQRLEWMGWIDLENANTIYDAKFQGRVTITRDTSASTAYMELSSLRSEDTAVYYCARDQYGRYFYDVWGQGTLVTVSS
VL: DIVMTQSPDSLAVSLGERATINCKSSQSLLNARTGKNYLAWYQQKPGQPPKLLIYWASTRESGVPDRFSGSGSGTDFTLTISSLQAEDVAVYYCKQSYSRRTFGGGTKVEIK
Take B5: the Kd in assay [1] is 2200 pM; in assay [2], 400 pM.
